Source: US20260266848A1, “COMPOSITIONS AND METHODS FOR DIAGNOSING AND TREATING DYSTONIA” (Duke University, priority 2023, published 2026)

How the values were obtained:
[1] = test system: DYT-TOR1A MEF EVs; assay: Quantitative LC-MS/MS proteomics of EVs from drug-treated DYT-TOR1A MEF cultures (ritonavir, salubrinal); assay type: cell-based, mouse; set-up: key to RTV Corrective Direction / RTV Corrective Direction, Grwd1 / RTV Corrective Direction, Srrm2 / RTV Corrective Direction, Rbm17 / RTV Corrective Direction, Dcaf8 / RTV Corrective Direction, Edil3 / RTV Corrective Direction, Timp3 / RTV Corrective Direction, Heatr3 / RTV Corrective Direction, Brd4 / RTV Corrective Direction, P3h4 / RTV Corrective Direction, Pacsin3 / RTV Corrective Direction, Naa50 / RTV Corrective Direction, Lpar6 / RTV Corrective Direction, Ndrg1 / RTV Corrective Direction, Kntc1 / RTV Corrective Direction, Cdk11b / RTV Corrective Direction, Sumo1 / RTV Corrective Direction, Lsm4 / RTV Corrective Direction, Hmga2 / RTV Corrective Direction, Cstf1 / RTV Corrective Direction, Tes / RTV Corrective Direction, Sbno1 / RTV Corrective Direction, Unc119b / RTV Corrective Direction, Cfdp1 / RTV Corrective Direction, Sec61b: YES = protein abundance effect opposite to DYT/WT; settings: EV protein abundance; for DYT + RTV/DYT Cohen's d: ritonavir (RTV)-treated DYT vs DYT; for RTV Corrective Direction: DYT + RTV (ritonavir) vs DYT, direction compared with DYT/WT
[2] = test system: WT MEF EVs; assay: Quantitative LC-MS/MS proteomics of EVs from ISRIB-treated WT MEF cultures; assay type: cell-based, mouse; set-up: key to ISRIB and DYT Parallel Direction / ISRIB and DYT Parallel Direction, Ctdsp1 / ISRIB and DYT Parallel Direction, Pcdh19 / ISRIB and DYT Parallel Direction, Tspan7 / ISRIB and DYT Parallel Direction, Myo1e / ISRIB and DYT Parallel Direction, Plpp3 / ISRIB and DYT Parallel Direction, Sh3bp4 / ISRIB and DYT Parallel Direction, Dnajc7 / ISRIB and DYT Parallel Direction, Drg1 / ISRIB and DYT Parallel Direction, Maea: YES = protein abundance effect similar to DYT/WT; settings: EV protein abundance; for WT + ISRIB/WT Cohen's d: ISRIB-treated WT vs WT; for ISRIB and DYT Parallel Direction: WT + ISRIB vs WT, direction compared with DYT/WT

Molecule | DYT + RTV/DYT Cohen's d [1] | WT + ISRIB/WT Cohen's d [2] | RTV Corrective Direction [1] | ISRIB and DYT Parallel Direction [2]
Canx (protein, UniProt P35564 21-591, looked up) Calnexin: HDGHDDDAIDIEDDLDDVIEEVEDSKSKSDASTPPSPKVTYKAPVPTGEVYFADSFDRGSLSGWILSKAKKDDTDDEIAKYDGKWEVDEMKETKLPGDKGLVLMSRAKHHAISAKLNKPFLFDTKPLIVQYEVNFQNGIECGGAYVKLLSKTAELSLDQFHDKTPYTIMFGPDKCGEDYKLHFIFRHKNPKTGVYEEKHAKRPDADLKTYFTDKKTHLYTLILNPDNSFEILVDQSVVNSGNLLNDMTPPVNPSREIEDPEDRKPEDWDERPKIADPDAVKPDDWDEDAPSKIPDEEATKPEGWLDDEPEYIPDPDAEKPEDWDEDMDGEWEAPQIANPKCESAPGCGVWQRPMIDNPNYKGKWKPPMIDNPNYQGIWKPRKIPNPDFFEDLEPFKMTPFSAIGLELWSMTSDIFFDNFIISGDRRVVDDWANDGWGLKKAADGAAEPGVVLQMLEAAEERPWLWVVYILTVALPVFLVILFCCSGKKQSNAMEYKKTDAPQPDVKDEEGKEEEKNKRDEEEEEEKLEEKQKSDAEEDGVTGSQDEEDSKPKAEEDEILNRSPRNRKPRRE | −0.16 | 0.64 | – | –
Cul5 (protein, UniProt Q9D5V5 1-780, looked up) Cullin-5: MATSNLLKNKGSLQFEDKWDFMHPIVLKLLRQESVTKQQWFDLFSDVHAVCLWDDKGSSKIHQALKEDILEFIKQAQARVLSHQDDTALLKAYIVEWRKFFTQCDILPKPFCQLEVTLLGKQSSNKKSNMEDSIVRKLMLDTWNESIFSNIKNRLQDSAMKLVHAERLGEAFDSQLVIGVRESYVNLCSNPEDKLQIYRDNFEKAYLDSTERFYRTQAPSYLQQNGVQNYMKYADAKLKEEEKRALRYLETRRECNSVEALMECCVNALVTSFKETILAECQGMIKRNETEKLHLMFSLMDKVPNGIEPMLKDLEEHIISAGLADMVAAAETITTDSEKYVEQLLTLFNRFSKLVKEAFQDDPRFLTARDKAYKAVVNDATIFKLELPLKQKGVGLKTQPESKCPELLANYCDMLLRKTPLSKKLTSEEIEAKLKEVLLVLKYVQNKDVFMRYHKAHLTRRLILDISADSEIEENMVEWLREVGMPADYVNKLARMFQDIKVSEDLNQAFKEMHKNNKLALPADSVNIKILNAGAWSRSSEKVFVSLPTELEDLIPEVEEFYKKNHSGRKLHWHHLMSNGIITFKNEVGQYDLEVTTFQLAVLFAWNQRPREKISFENLKLATELPDAELRRTLWSLVAFPKLKRQVLLYDPQVNSPKDFTEGTLFSVNQDFSLIKNAKVQKRGKINLIGRLQLTTERMREEENEGIVQLRILRTQEAIIQIMKMRKKISNAQLQTELVEILKNMFLPQKKMIKEQMEWLIEHRYIRRDEADINTFIYMA | 13.04 | −3.39 | YES | YES
Psmd8 (protein, UniProt Q9CX56 1-353, looked up) 26S proteasome non-ATPase …: MFIKGRAAKTPRGEPRRSSRGGRKLAVVAPPPVLGSTSRPHFRRESIARRRCRKSGRRLAASRKMAATAATVNGSTTVSSSGPAATSVGILQAAAGMYEQLKDEWNRKNPNLSKCGEELGRLKLVLLELNFLPTTGTKLTKQQLILARDILEIGAQWSILCKDIPSFERYMAQLKCYYFDYKEQLPESAYMHQLLGLNLLFLLSQNRVAEFHTELERLPAKDIQTNVYIKHPVSLEQYLMEGSYNKVFLAKGNIPAESYTFFIDILLDTIRDEIAGCIEKAYEKILFAEATRILFFSTPKKMTDYAKKRGWVLGPNNYYSFASQQQKPEDSTIPSTELAKQVIEYARQLEMIV | 23.45 | −3.31 | YES | YES
Kpna4 (protein, UniProt O35343 2-521, looked up) Importin subunit alpha-3: ADNEKLDNQRLKNFKNKGRDLETMRRQRNEVVVELRKNKRDEHLLKRRNVPQEDICEDSDIDGDYRVQNTSLEAIVQNASSDNQGIQLSAVQAARKLLSSDRNPPIDDLIKSGILPILVHCLERDDNPSLQFEAAWALTNIASGTSEQTQAVVQSNAVPLFLRLLHSPHQNVCEQAVWALGNIIGDGPQCRDYVISLGVVKPLLSFISPSIPITFLRNVTWVMVNLCRHKDPPPPMETIQEILPALCVLIHHTDVNILVDTVWALSYLTDAGNEQIQMVIDSGIVPHLVPLLSHQEVKVQTAALRAVGNIVTGTDEQTQVVLNCDALSHFPALLTHPKEKINKEAVWFLSNITAGNQQQVQAVIDANLVPMIIHLLDKGDFGTQKEAAWAISNLTISGRKDQVAYLIQQNVIPPFCNLLTVKDAQVVQVVLDGLSNILKMAEDQAETIANLIEECGGLEKIEQLQNHENEDIYKLAYEIIDQFFSSDDIDEDPSLVPESVQGGTFGFNSSTNVPTEGFQF | 2.38 | −3.18 | YES | YES
Dctn2 (protein, UniProt Q99KJ8 2-402, looked up) Dynactin subunit 2: ADPKYADLPGIARNEPDVYETSDLPEDDQAEFDAEELSSTSVEHIIVNPNAAYDKFKDKRVGTKGLDFSDRIGKTKRTGYESGDYEMLGEGLGVKETPQQKYQRLLHEVQELTTEVEKIKTTVKESATEEKLTPVVLAKQLAALKQQLVASHLEKLLGPDAAINLADPDGALAKRLLLQLEATKSSKGSSGGKATAGAPPDSSLVTYELHSRPEQDKFSQAAKVAELEKRLTELEATVRCDQDAQNPLSAGLQGACLMETVELLQAKVSALDLAVLDQVEARLQSVLGKVNEIAKHKASVEDADTQNKVHQLYETIQRWSPVASTLPELVQRLVTIKQLHEQAMQFGQLLTHLDTTQQMMASSLKDNTALLTQVQTTMRENLATVEGNFASIDARMKRLGK | 5.51 | −0.53 | YES | YES
Ipo11 (protein, UniProt Q8K2V6 1-975, looked up) Importin-11: MDLNSASSVVLQVLTQATSQDTAVLKPAEEQLKQWETQPGFYSVLLNIFTNHTLDINVRWLAVLYFKHGIDRYWRRVAPHALSEEEKSTLRAGLITNFNEPINQIATQIAVLIAKVARLDCPRQWPELIPTLVESVKVQDDLRQHRALLTFYHVTKTLASKRLAADRKLFYDLASGIYNFACSLWNHHTDTFLQHVSSGNEAAVLSSLERTLLSLKVLRKLTVNGFVEPHKNMEVMGFLHGIFERLKQFLECSRSIGTDNVCRDRLEKTIILFTKVLLDFLDQHPISFTPLIQRSLEFSVSYVFTEVGEGVTFERFIVQCMNLIKMIVKNYAYKPSKNFEDSSPETLEAHKIKMAFFTYPTLTEICRRLVSHYFLLTEEELTMWEEDPEGFTVEETGGDSWKYSLRPCTEVLFIDIFHEYNQTLTPVLLEMMQTLEGPTNVEDMNALLIKDAVYNAVGLAAFELFDSVDFDQWFKTQLLPELQVSHNRYKPLRRRVIWLIGQWISVKFKSDLRPMLYEAICNLLQDQDLVVRIETATTLKLTVDDFEFRTDQFLPYLETMFTLLFQLLQQVTECDTKMHVLHVLSCVIERVNVQIRPYVGCLVQYLPLLWKQSEEHNMLRCAILTTLIHLVQGLGADSKNLYPFLLPVIQLSTDVSQPPHVYLLEDGLELWLVTLENSPCVTPELLRIFQNMSPLLELSSENLRTCFKIINGYIFLSSTEFLQTYAAGLCQSFYELLPEITTEGQVQVLKVVENALKVNPVLGPQMFQRILPCVFRGVIEGERYPVVMSIYLAVMGRVLLQNTSFFSSLLNEMGHEFNQEMDQLLGNVIEMWVDRMDNITQPERKKLSALALLSLLPSDNSVIQDKFCGIINISVEALHDVMTEDPETRTYKDCMLMSQHEEPKVTEDEEPPTEQDKRKKMLALKDPVHTVSLQQFIYEKLKAQQEILGEQGFQSLMETVDTEIVTQLQEFLQGF | 9.75 | −1.97 | YES | YES
Sec23a (protein, UniProt Q01405 2-765, looked up) Protein transport protein …: TTYLEFIQQNEERDGVRFSWNVWPSSRLEATRMVVPVAALFTPLKERPDLPPIQYEPVLCSRTTCRAVLNPLCQVDYRAKLWACNFCYQRNQFPPTYAGISELNQPAELLPQFSSIEYVVLRGPQMPLIFLYVVDTCIEDEDLQALKESMQMSLSLLPPTALVGLITFGRMVQVHELGCEGISKSYVFRGTKDLSAKQLQEMLGLSKVPVTQATRGPQVQQPPPSNRFLQPVQKIDMNLTDLLGELQRDPWPVPQGKRPLRSSGVALSIAVGLLECTFPNTGARIMMFIGGPATQGPGMVVGDELKTPIRSWHDIEKDNAKYVKKGTKHFEALANRAATTGHVIDIYACALDQTGLLEMKCCPNLTGGYMVMGDSFNTSLFKQTFQRVFTKDIHGQFKMGFGGTLEIKTSREIKISGAIGPCVSLNSKGPCVSENEIGTGGTCQWKICGLSPTTTLAIYFEVVNQHNAPIPQGGRGAVQFVTQYQHSSGQRRIRVTTIARNWADAQTQIQNIAASFDQEAAAILMARLAIYRAETEEGPDVLRWLDRQLIRLCQKFGEYHKDDPNSFRFSETFSLYPQFMFHLRRSPFLQVFNNSPDESSYYRHHFMRQDLTQSLIMIQPILYAYSFSGPPEPVLLDSSSILADRILLMDTFFQILIYHGETIAQWRKSGYQDMPEYENFRHLLQAPVDDAQEILHSRFPMPRYIDTEHGGSQARFLLSKVNPSQTHNNMYAWGQESGAPILTDDVSLQVFMDHLKKLAVSSAA | 8.14 | −0.95 | YES | YES
